In patent US20050202025A1:

Target: FbsA on cells of S. agalactiae O90R (Streptococcus agalactiae)
Assay: increasing fibrinogen on S. agalactiae O90R cells immobilised on microtiter wells; apparent KD from the concentration for half maximal binding

## human fibrinogen (from UniProt P02671 20-629; P02675 31-491; P02679 27-437) (ligand)
  Kd: 0.025 µM
